In US20030152959:

Biological target: T1, GST-ERRα1 (Homo sapiens) (UniProt P11474)
T1 sequence: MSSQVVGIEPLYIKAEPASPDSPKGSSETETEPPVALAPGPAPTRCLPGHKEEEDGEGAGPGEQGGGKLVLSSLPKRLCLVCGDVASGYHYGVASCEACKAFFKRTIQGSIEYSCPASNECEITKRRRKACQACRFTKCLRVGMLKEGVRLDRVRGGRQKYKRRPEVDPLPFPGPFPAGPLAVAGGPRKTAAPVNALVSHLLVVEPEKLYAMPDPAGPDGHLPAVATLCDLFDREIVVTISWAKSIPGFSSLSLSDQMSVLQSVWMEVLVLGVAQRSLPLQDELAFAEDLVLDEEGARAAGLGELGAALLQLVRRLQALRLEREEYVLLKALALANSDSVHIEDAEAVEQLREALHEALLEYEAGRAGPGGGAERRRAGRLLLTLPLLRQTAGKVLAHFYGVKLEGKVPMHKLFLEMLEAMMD
Conditions: cell-free transcription, HeLa nuclear extract, approximate

Substance: SV40 genome / late promoter template
- activity (fold repression): 3
